Literature values, collected in article PMC4747809.

Legend:
[1] = target: iC3b/C3dg TED (iC3b, C3dg) (Homo sapiens) (UniProt P01024)
[2] = target: iC3b/C3dg iC3b, C3dg (Homo sapiens) (UniProt P01024)
Sequence of iC3b/C3dg iC3b, C3dg (Homo sapiens) (P01024 955-1303): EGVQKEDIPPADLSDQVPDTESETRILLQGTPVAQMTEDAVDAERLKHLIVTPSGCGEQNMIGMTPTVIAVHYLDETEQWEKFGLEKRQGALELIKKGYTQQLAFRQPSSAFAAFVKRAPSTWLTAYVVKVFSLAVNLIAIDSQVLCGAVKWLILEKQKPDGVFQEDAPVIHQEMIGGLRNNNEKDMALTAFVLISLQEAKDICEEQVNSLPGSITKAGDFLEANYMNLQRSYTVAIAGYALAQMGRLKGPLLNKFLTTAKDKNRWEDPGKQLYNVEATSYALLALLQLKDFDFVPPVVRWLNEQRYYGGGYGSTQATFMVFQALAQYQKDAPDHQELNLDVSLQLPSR

Sequence of iC3b/C3dg TED (iC3b, C3dg) (Homo sapiens) (P01024 955-1303): as above
Sequence of Factor H (FH) domains 19-20 (P08603 1107-1231): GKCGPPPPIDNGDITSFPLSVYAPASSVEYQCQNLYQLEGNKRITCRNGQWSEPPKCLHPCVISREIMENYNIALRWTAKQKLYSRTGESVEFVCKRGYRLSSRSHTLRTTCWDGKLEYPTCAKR
Sequence of Complement receptor 2 (CR2) domains 1-4 (P20023 21-273): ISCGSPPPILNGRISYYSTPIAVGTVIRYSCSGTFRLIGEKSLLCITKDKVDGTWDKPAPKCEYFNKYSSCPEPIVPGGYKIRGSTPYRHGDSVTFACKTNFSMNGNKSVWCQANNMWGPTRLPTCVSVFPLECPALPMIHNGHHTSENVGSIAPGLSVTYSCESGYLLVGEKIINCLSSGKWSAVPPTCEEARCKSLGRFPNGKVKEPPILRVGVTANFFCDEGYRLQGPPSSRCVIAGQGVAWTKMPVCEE

| Substance | Kd [1] | Kd [2] |
| --- | --- | --- |
| Complement receptor 2 (CR2) domains 1-4 (from UniProt P20023) | 500 nM |  |
| Factor H (FH) domains 19-20 (from UniProt P08603) |  | 5 µM |
